Values of other authors, collected in PMC3563353.

Target: 4-phenylbutyryl-His-DPhe-Arg-Trp-Gly-Lys
Assay: competition binding

Chain of MC4R (P32245 whole entry): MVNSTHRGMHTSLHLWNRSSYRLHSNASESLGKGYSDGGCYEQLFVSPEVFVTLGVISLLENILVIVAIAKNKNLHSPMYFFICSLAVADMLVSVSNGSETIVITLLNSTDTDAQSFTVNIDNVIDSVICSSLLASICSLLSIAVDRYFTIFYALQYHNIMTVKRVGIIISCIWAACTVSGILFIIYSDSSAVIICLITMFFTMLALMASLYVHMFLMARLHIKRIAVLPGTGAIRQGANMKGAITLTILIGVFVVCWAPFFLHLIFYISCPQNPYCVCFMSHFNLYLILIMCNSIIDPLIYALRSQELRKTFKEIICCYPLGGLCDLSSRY
Chain of MC5R (P33032 whole entry): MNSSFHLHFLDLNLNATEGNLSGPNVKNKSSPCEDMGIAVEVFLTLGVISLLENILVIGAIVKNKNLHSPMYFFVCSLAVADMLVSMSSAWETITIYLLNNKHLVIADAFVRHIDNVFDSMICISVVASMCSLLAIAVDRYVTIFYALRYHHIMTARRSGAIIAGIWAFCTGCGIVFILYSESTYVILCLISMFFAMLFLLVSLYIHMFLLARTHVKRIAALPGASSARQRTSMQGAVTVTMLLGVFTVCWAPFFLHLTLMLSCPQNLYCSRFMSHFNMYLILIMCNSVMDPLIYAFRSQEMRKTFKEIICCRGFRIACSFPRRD
Chain of MC1R (Q01726 whole entry): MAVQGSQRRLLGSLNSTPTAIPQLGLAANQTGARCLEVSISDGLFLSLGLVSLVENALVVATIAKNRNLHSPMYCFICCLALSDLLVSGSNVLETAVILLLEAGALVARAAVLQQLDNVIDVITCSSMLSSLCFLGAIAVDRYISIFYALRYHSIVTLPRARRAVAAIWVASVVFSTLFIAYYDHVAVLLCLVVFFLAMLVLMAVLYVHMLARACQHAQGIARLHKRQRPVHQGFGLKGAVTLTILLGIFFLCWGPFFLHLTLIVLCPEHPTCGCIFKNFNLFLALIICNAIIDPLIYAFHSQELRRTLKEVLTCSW

MC1R (from UniProt Q01726)
Ki: 0.00024 µM

MC4R (from UniProt P32245)
Ki: 0.254 µM

MC5R (from UniProt P33032)
Ki: 0.046 µM
